These results are taken from publication PMC9516340, “Familial ALS-associated SFPQ variants promote the formation of SFPQ cytoplasmic aggregates in primary neurons” (Open Biology, 2022).

The series deals with the molecule itself. Nature of the series: crystal structure; hanging-drop vapour diffusion at 20°C; SFPQ-276-535 L534I (His6-tag removed) mixed 1:1 with RXRα-DBD-130-228 as source of Zn(II); reservoir 0.1 M MES (pH 6.0), 0.2 M calcium chloride, 12% (w/v) PEG 4000; space group P2(1), two protein molecules per asu; 1.83 Å.

B1: SFPQ-276-535 L534I (dimerization domain of human splicing factor proline- and glutamine-rich, fALS-associated L534I variant) (domain or fragment, UniProt P23246 276-535, looked up)
chain: EGFKANLSLLRRPGEKTYTQRCRLFVGNLPADITEDEFKRLFAKYGEPGEVFINKGKGFGFIKLESRALAEIAKAELDDTPMRGRQLRVRFATHAAALSVRNLSPYVSNELLEEAFSQFGPIERAVVIVDDRGRSTGKGIVEFASKPAARKAFERCSEGVFLLTTTPRPVIVEPLEQLDDEDGLPEKLAQKNPMYQKERETPPRFAQHGTFEYEYSQRWKSLDEMEKQQREQVEKNMKDAKDKLESEMEDAYHEHQANIL
notes: also called SFPQ L534I
For B1, the binding result is reported as “binds”.
